# From the DeepSol protein solubility set
# Experiment: soluble on expression in E. coli; label from the status in PepcDB or PDB records
row,Sequence,soluble on expression in E. coli
1,MACGLALKRPLQHEYESFLTDETYNGEAKRARTQCPPFRAQMGTIAATLPSTSTFAQKFKEQEESVFQAATLMTRLSRNQLKTYLSSEVKNLRKRKAIPRSNDFDDDGDQRGDGCSSNYSKAYRAPSSPKSGSDSEGEAPSTSVTDRSSAKREFTMANVQMICERLLKQQEIRLRNEFEMVLTKKLDEQHQQYVQFAAEQLNSKCVSTGDDYSYSYLS,not soluble
2,MNIQPTIQSGITSQNNQHHQTEQIPSTQIPQSELPLGCQAGFVVNIPDDIQQHAPECGETTALLSLIKDKGLLSGLDEYIAPHLEEGSIGKKTLDMFGLFNVTQMALEIPSSVSGISGKYGVQLNIVKPDIHPTSGNYFLQIFPLHDEIGFNFKDLPGPLKNALSNSNISTTAVSTIASTGTSATTSTVTTEPKDPIPWFGLTAQVVRNHGVELPIVKTENGWKLVGETPLTPDGPKANYTEEWVIRPGEADFKYGASPLQATLGLEFGAHFKWDLDNPNTKYAVLTNAAANALGALGGFAVSRFASTDPMLSPHIGAMVGQAAGHAIQYNTPGLKPDTILWWAGATLGAADLNKAEFEVARFTDYPRIWWHAREGAIFPNKADIEHATGADIRAMEEGIPVGQRHPNPEDVVIDIESNGLPHHNPSNHVDIFDIIQETRV,not soluble
3,SSEELLKQALQQAQQLLQQAQELAKKGGGEELLKQALQQAQQLLQQAQELAKKGGGGEELLKQALQQAQQLLQQAQELAKKGGGEELLKQALQQAQQLLQQAQELAKK,soluble
4,MLLSSCQSLFSPAYQSTLRPSDNPQTVEQVQKNDPRAQMGAREHPRIVASYGGEYRDAKTERLVARIAGALTAVSENPQQSYRITILNSPAINAFALPGGYLYVTRGLLALANDASEVAAVLSHEMGHVTANHGIERQRREEAEVIASRVVAEVLSSDLAGKQALARGKLRLAAFSRQQELQADVIGVRMLGEAGYDPYASPRFLDSMAAYARFSSADPENDQSLDFLSSHPNTPQRIELARRHARAFGQEGQVGDRGRDWFLDGIDGLLYGDSPQEGYVRGQTFLHGTLGIRFDVPEGFVIDNKVEAVLATGPGDMAIRFDGVADPKQTSLANYLTSGWVAGLLPETVKETQINGLEAATARASADKWDFDVTVIRVGQQIFRFLTAVPKGNTQLDSIANVLRTSFRKMTPQEIASLKPLRVRVVTVKPGETVATMAARMMGTERKLDMFRMINAMSATATLQPGQRVKIISELEHHHHHH,not soluble
5,MKLCFNEATTLENSNLKLDLELCEKHGYDYIEIRTMDKLPEYLKDHSLDDLAEYFQTHHIKPLALNALVFFNNRDEKGHNEIITEFKGMMETCKTLGVKYVVAVPLVTEQKIVKEEIKKSSVDVLTELSDIAEPYGVKIALEFVGHPQCTVNTFEQAYEIVNTVNRDNVGLVLDSFHFHAMGSNIESLKQADGKKIFIYHIDDTEDFPIGFLTDEDRVWPGQGAIDLDAHLSALKEIGFSDVVSVELFRPEYYKLTAEEAIQTAKKTTVDVVSKYFSMLEHHHHHH,soluble
6,MGSDKIHHHHHHMEENYRRYPIGIQNFEQLRNRNCVYVDKTELVYRLANTDSVYFLSRPRRFGKSLLVSTLEAYFQGKKDLFKGLAMERLEKDWNVYPVFHIDFSLTKYTTLFDLQEQLNLFLLRCEKVYGAEKEEKTPAARLQGMIRRAYEQTGLPVVVLIDEYDAPLLDSNSNIPLQQELRNELRKFFSPLKGLGQYLRFLFITGISKFSQMSIFSELNNLKNISMRDDFSAICGITERELLDELRPDIERMALANGETYEAACAHLKRQYDGYHFSKHCEDIYNPFSLFNAFDAKEYKNFWFSTGTPTFLIDLLQETDFDVRQLEGVEATDEQFDAPTERVTSPIPVLYQSGYLTIKGYDPEFQVYRLAYPNGEVRKGFIESLLPAYLELPGQSSTFYVVSFIRDLRKGDIESCLERTRSFFASIPNDLENKTEKHYQTIFYLLFRLMGMYVDSEVKSAVGRADVVIKMQDAIYVLEFKYDGTAREALAQINSRLYAVPYRKDGRRIVKVGINFDSATRTIGDWVIEVEDTVDNL,not soluble
7,MLAMVNKVLDWIRSLFWKEEMELTLVGLQNSGKTTFVNVIASGQFTEDMIPTVGFNMRKITKGNVTIKLWDIGGQPRFRSMWERYCRGVNAIVFMVDAADEEKLEASRNELMQLLDKPQLDAIPVLVLGNKKDLPGALDERQLIERMNLSSIQNREICCYSISCKEKENIDITLQWLIDHSKAQR,not soluble
8,GMSDLQSLQPKLLWQWFDQICAIPHPSYKEEQLAQFIINWAKTKGFFAERDEVGNVLIRKPATVGMENRKPVVLQAHLDMVPQANEGTNHNFDQDPILPYIDGDWVKAKGTTLGADNGIGMASALAVLESNDIAHPELEVLLTMTEERGMEGAIGLRPNWLRSEILINTDTEENGEIYIGCAGGENADLELPIEYQVNNFEHCYQVVLKGLRGGHSGVDIHTGRANAIKVLLRFLAELQQNQPHFDFTLANIRGGSIRNAIPRESVATLVFNGDITVLQSAVQKFADVIKAELALTEPNLIFTLEKVEKPQQVFSSQCTKNIIHCLNVLPNGVVRNSDVIENVVETSLSIGVLKTEDNFVRSTMLVRSLIESGKSYVASLLKSLASLAQGNINLSGDYPGWEPQSHSDILDLTKTIYAQVLGTDPEIKVIHAGLECGLLKKIYPTIDMVSIGPTIRNAHSPDEKVHIPAVETYWKVLTGILAHIPSR,soluble
9,SMHPVAGSNPAFCGPGKPSCLNEDAMRAADQFDLYSSQQNKYSHTVSHKPMVCQRQDPLNETHLQPTSGRNIEIKDELKKKKNLNRSGKRGRPSGTTKSAGYRTSTGRPLGTTKAAGFKTSPGRPLGTTKAAGYKVSPGRPPGSIKALSRLADLGYGCGTAAFPYPMMHSRVVHGLQETSGEVKPPSE,soluble
10,MKRARSANIPGAILHSLAELQDGLNAMIDPSWRAVRSLDNWALAITMESTELLDSYPWKWWKNLNATPDLANVRIELVDIFHFSLSGAMQMRSTPDDEIPAASLKPLKEVMTTFLPAKECTSDPYGFVFFPLTDTQNAIASFRNIIQLANAYRFDVIIECIIYAAEDLGFNLVAYYIAKHTLNCIRQLSGYKDGSYVKVNNGVEDNSLLHNCIKDVSLDEVLDADKYVQAWNSIMANVYEAFQIKESDRKDAERWFALAKENRLAIKA,soluble
11,MVEIYLFVNPLGGVCLEIEKEIIQLSVNDKKKIQLRFIPLLNMKTINEFLSRQHIPINDIKRRNRIFEDLYSAALDYKAAQLQGRKKGRQLLIGLQKAVAEDGLAYSPELSEELLLAAGGDIDMYRKDRQSDFVKESFQTDQKVAREMGIKQHPTAVVYNYTCENDFGILVENFENMDEIKQLCRVHPHNEPLLNQGDATFEFKRRSNYHFPNGHLHLL,not soluble
12,MGVETLNKVFKIAKKFYTDIRYYSFQLACIHLGETFSRYTKFNLADKYYLKKDKIVLNYLRTRYTNSPKQDVYGGVPKIYQPIWVFWYQGEEQMPKLVSACLKSVRNNANGHEVILISKENMNNYIEIPDVIRDRVESKKISMAQYSDIIRMCLLAEYGGLWIDATVLVTQLIPQYIFELPLFTIKNSPNQEDPLYFISVSHLRWTTYVMGGEPNNALFTFVRDLLIEYNSVENALIDYLLIDYAIELAIEKNSSISDDMIKIPINNQLKEEFVHRLFSVYPDCKTKELLQSGTIFFKLSYKKVAPKVIEKNNYQLLVDGDLCQAYNMGNLEHHHHHH,not soluble
13,AGQGESGNPPATDKERFIASLMARMSNAEKIGQLRLVSVGADHPKEALMADIRAGKVGAIFNTVTRPDIRAMQDQVRHSRLKIPLFHAYDVAHGHRTIFPISLGLAASWDPEVVARSARISALEASADGLDMSFSPMVDITRDARWGRVSEGFGEDTYLTSLLSGVMVRAYQGSNLAAPDSIMAAVKHFALYGAAEGGRDYNTVDMSLPRMFQDYLPPYKAAVDAGAGAVMVSLNTINGVPATANRWLLTDLLRQQWGFKGLTISDHGAVKELIKHGLAGNERDATRLAIQAGVDMNMNDDLYSTWLPKLLAAGEIDQADIDRACRDVLAAKYDLGLFADPYRRLGKPDDPPFDTNAESRLHRQAAREVAREGLVLLKNRDGLLPLKKQGRIAVIGPLAKSQRDVIGSWSAAGVPRQAVTVYQGLANAVGERATLLYAKGANVSGDQAILDYLNSYNPEVEVDPRSAEAMLEEALRTARDADLVVAVVGESQGMAHEASSRTDLRIPASQRRLLKALKATGKPLVLVLMNGRPLSLGWEQENADAILETWFSGTEGGNAIADVLFGEHNPSGKLTMSFPRSVGQVPVYYNHLNTGRPMDHDNPGKYTSRYFDEANGPLYPFGYGLSYTEFSLSPLRLSSERLARGATLEARVTLSNSGKRAGATVVQLYLQDPVASLSRPVKELRGFRKVMLEPGESREIVFRLGEADLKFYDSQLRHTAEPGEFKVFVGLDSAQTESRSF,not soluble
14,MGSDKIHHHHHHMTMIRVNDVLSVGPQPSISEIRSLAGHGFAGMINARPDGEEASQPGNAAEREAAGHADVPYTFIPVTMPTITEADVRAFQRAMADAGGPVFAHCKTGTRALTLYALGEALDGRMSSQDMAALGQKLGIDLSAASRWFEAHRQLRPDVKGFFDPRTGSVQYVVSDPDTRKCAIVDPVLDFDEKSGATTTRNADAMLSYIAENGLSVEWILDTHPHADHFSAAQYLKEKTGAPTAIGAPVVDVQRLWRGIYNWPELRVDGSQWDRLFSDGDTFKVGSMAARVMFSPGHTLASITYVIGNAAFVHDTIFMPDSGTARADFPGGDARVLWKSIQKILDLPDETRLFTGHDYQPGGRAPKWESTVGEQKRANAHLAGVNEEAFAGLRVARDRTLPMPKLILHALQVNIQAGRLPEPEPNGTRYLKFPLDALQGAVW,not soluble
15,MARFSIEGKSLKLDAITTEDEKSVFAVLLEDDSVKEIVLSGNTIGTEAARWLSENIASKKDLEIAEFSDIFTGRVKDEIPEALRLLLQALLKCPKLHTVRLSDNAFGPTAQEPLIDFLSKHTPLEHLYLHNNGLGPQAGAKIARALQELAVNKKAKNAPPLRSIICGRNRLENGSMKEWAKTFQSHRLLHTVKMVQNGIRPEGIEHLLLEGLAYCQELKVLDLQDNTFTHLGSSALAIALKSWPNLRELGLNDCLLSARGAAAVVDAFSKLENIGLQTLRLQYNEIELDAVRTLKTVIDEKMPDLLFLELNGNRFSEEDDVVDEIREVFSTRGRGELDELDDMEELTDEEEEDEEEEAESQSPEPETSEEEKEDKELADELSKAHI,soluble
16,MSCINLPTVLPGSPSKTRGQIQVILGPMFSGKSTELMRRVRRFQIAQYKCLVIKYAKDTRYSSSFCTHDRNTMEALPACLLRDVAQEALGVAVIGIDEGQFFPDIMEFCEAMANAGKTVIVAALDGTFQRKPFGAILNLVPLAESVVKLTAVCMECFREAAYTKRLGTEKEVEVIGGADKYHSVCRLCYFKKASGQPAGPDNKENCPVPGKPGEAVAARKLFAPQQILQCSPAN,soluble
17,MASSVDEEALHQLYLWVDNIPLSRPKRNLSRDFSDGVLVAEVIKFYFPKMVEMHNYVPANSLQQKLSNWGHLNRKVLKRLNFSVPDDVMRKIAQCAPGVVELVLIPLRQRLEERQRRRKQGAGSLQELAPQDGSGYMDVGKVAFSISPSRLELSFCPSSCHL,not soluble
18,MGSDKIHHHHHHMSDWTDRLPEAARAYIADRRVDEVECILSDIAGVARGKAMPAFKFGKQTSFFLPNSIFLQTITGEWADNPSGAFTEPDMILIPDYSTATAAPWTADITLQVIHDAVDQQGRPVPVSPRNVLRRVVELYNAEGWTPIVAPEMEFFLVARNIDPNMPVMPPMGRTGRRAAAKQAYSMSAVDEYGKVIDDIYDFAEAQGFEIDGILQEGGAGQVEINLAHGDPVALADQIFFFKRLIREAALRHDCFATFMAKPIEGEPGSAMHIHHSVVDSASKLNIFSDAKGGETEAFLHFIAGMQTHLPAAVALLAPYVNSYRRYVPDFAAPINLEWGRDNRTTGLRVPISGPEARRLENRLAGMDCNPYLGLAASLACGYLGLKERKMPQPECTGDAYMSETDLPYNLGDALDLLEEDAALRDVLGPEFCGVYDSVKRNEYKEFLQVISPWEREHLLLNV,not soluble
